A word on the Kd: it is the free concentration of one partner at which half of the binding sites on the other are occupied at equilibrium, for simple one-to-one binding. Low readings indicate tighter binding, high ones weaker binding. In general, koff refers to the first-order rate constant of dissociation. The kon is the second-order rate constant of association. Read a low kon as slower complex formation.

The target of experiment [1] is T1, extracellular domain (ECD) of human epidermal growth factor receptor 2 (HER2) (Homo sapiens, UniProt P04626).
T1 construct: human epidermal growth factor receptor 2 (HER2), extracellular domain; also called HER2/ECD
The experiment in a line: SPR; BIAcore T200; HER2/ECD immobilised on a CM5 chip by amine coupling to 1000 RU; IgG flowed in PBST (0.05% Tween 20) at 30 uL/min; regeneration 10 mM glycine pH 1.5; global fit to a 1:1 binding model. To be noted: both partners purified. (In general: In SPR one partner is held on a chip, and binding of the other changes the refractive index at the surface.)

For experiment [2], the target named is T2, extracellular domain (ECD) of human epidermal growth factor receptor 2 (HER2) (Homo sapiens, UniProt P04626).
T2 construct: human epidermal growth factor receptor 2 (HER2), extracellular domain (domains I-IV); also called HER2/ECD
The experiment in a line: competition binding assay; competition of S90 scFvs with IgGs (six mouse IgGs, four positive control IgGs) for binding to HER2/ECD; procedure in the Supplemental Experimental Procedures.

B1: GH2-91 IgG (antibody, V domains shown)
VH: EVQLVESGGGLVQPGGSLRLSCAASGFTINNFGIHWVRQAPGKGLEWVASIGPFWGYTSYADSVKGRFTISADTSKNTAYLQMNSLRAEDTAVYYCARFGNDYDGVMDYWGQGTLVTVSS
VL: DIQMTQSPSSLSASVGDRVTITCRASHDVGWGVAWYQQKPGKAPKLLISWPTYLYSGVPSRFSGSGSGTDFTLTISSLQPEDFATYYCQQYFSYPITFGQGTKVEIK
notes: source: HEK293-F, transient transfection, purified (Protein A, Superdex 200)
In experiment [1], B1 displayed a Kd of 2.47 nM, a koff of 0.00679 s⁻¹ and a kon of 2.75e+06 M⁻¹ s⁻¹.

B2: A21 (positive control IgG) (antibody, V domains shown)
VH: EVQLQQSGPEVVKTGASVKISCKASGYSFTGYFINWVKKNSGKSPEWIGHISSSYATSTYNQKFKNKAAFTVDTSSSTAFMQLNSLTSEDSAVYYCVRSGNYEEYAMDYWGQGTSVTVSS
VL: DIVLTQTPSSLPVSVGEKVTMTCKSSQTLLYSNNQKNYLAWYQQKPGQSPKLLISWAFTRKSGVPDRFTGSGSGTDFTLTIGSVKAEDLAVYYCQQYSNYPWTFGGGTRLEIK
notes: Positive control IgG; also called Antibody A21
As for B2, the binding result in experiment [2] is listed as “binds”.

B3: Fab37 (positive control IgG) (antibody, V domains shown)
VH: EVQLVESGGGLVQPGGSLRLSCAASGFSIWWSWIHWVRQAPGKGLEWVASISPSSGWTSYADSVKGRFTISADTSKNTAYLQMNSLRAEDTAVYYCARWWSSAMDYWGQGTLVTVSS
VL: DIQMTQSPSSLSASVGDRVTITCRASQSVSSAVAWYQQKPGKAPKLLIYSASSLYSGVPSRFSGSRSGTDFTLTISSLQPEDFATYYCQQWWWWPSTFGQGTKVEIK
As for B3, the binding result in experiment [2] is recorded as “binds”.

These data come from publication PMC5378893 (Scientific Reports, 2015).
